Test results taken from patent US20160200799A1.
Where two headings read alike, the source gives them in different places.

Experiments:
[1] = biological target: Influenza virus A/Brisbane/59/2007 (H1N1) (Influenza A virus A/Brisbane/59/2007 (H1N1)); test: cell-based or functional assay
[2] = biological target: Influenza virus A/Indonesia/5/2005/PR8-IBCDC-RG2 (H5N1) (Influenza A virus A/Indonesia/5/2005/PR8-IBCDC-RG2 (H5N1)); test: cell-based or functional assay
[3] = biological target: Influenza virus A/Okuda/1957 (H2N2) (Influenza A virus A/Okuda/1957 (H2N2)); test: cell-based or functional assay
[4] = biological target: Influenza virus A/Panama/2007/1999 (H3N2) (Influenza A virus A/Panama/2007/1999 (H3N2)); test: cell-based or functional assay
[5] = biological target: Influenza virus A/Suita/1/2009pdm (H1N1 2009 pandemic) (Influenza A virus A/Suita/1/2009pdm (H1N1pdm)); test: cell-based or functional assay
[6] = biological target: Influenza virus A/Brisbane/59/2007 (H1N1) (Influenza A virus A/Brisbane/59/2007 (H1N1)); test: ELISA on coated viral particles
[7] = biological target: Influenza virus A/California/7/2009pdm (H1N1pdm) (Influenza A virus A/California/7/2009pdm (H1N1pdm)); test: ELISA on coated viral particles
[8] = biological target: Influenza virus A/New Caledonia/20/1999 (H1N1) (Influenza A virus A/New Caledonia/20/1999 (H1N1)); test: ELISA on coated viral particles
[9] = biological target: Influenza virus A/Panama/2007/1999 (H3N2) (Influenza A virus A/Panama/2007/1999 (H3N2)); test: ELISA on coated viral particles
[10] = biological target: Influenza virus A/Brisbane/59/2007 (H1N1) (Influenza A virus A/Brisbane/59/2007 (H1N1)); test: cell-based or functional assay; remark: listed apart in the source
[11] = biological target: Influenza virus A/Indonesia/5/2005/PR8-IBCDC-RG2 (H5N1) (Influenza A virus A/Indonesia/5/2005/PR8-IBCDC-RG2 (H5N1)); test: cell-based or functional assay; remark: listed apart in the source
[12] = biological target: Influenza virus A/Okuda/1957 (H2N2) (Influenza A virus A/Okuda/1957 (H2N2)); test: cell-based or functional assay; remark: listed apart in the source
[13] = biological target: Influenza virus A/Panama/2007/1999 (H3N2) (Influenza A virus A/Panama/2007/1999 (H3N2)); test: cell-based or functional assay; remark: listed apart in the source
[14] = biological target: Influenza virus A/Suita/1/2009pdm (H1N1 2009 pandemic) (Influenza A virus A/Suita/1/2009pdm (H1N1pdm)); test: cell-based or functional assay; remark: listed apart in the source

F045-092 completely humanized IgG antibody (control anti-HA antibody)
Infection inhibition rate (%) [1]: 0% | Infection inhibition rate (%) at 0.002 µg/mL [1]: 0% | Infection inhibition rate (%) at 0.006 µg/mL [1]: 0% | Infection inhibition rate (%) at 0.024 µg/mL [1]: 0% | Infection inhibition rate (%) at 0.391 µg/mL [1]: 0% | Infection inhibition rate (%) at 1.6 µg/mL [1]: 0% | Infection inhibition rate (%) at 6.3 µg/mL [1]: 5.3% | Infection inhibition rate (%) at 25.0 µg/mL [1]: 24.4% | Infection inhibition rate (%) at 100.0 µg/mL [1]: 30.2% | Infection inhibition rate (%) at 200.0 µg/mL [1]: 58.4% | Infection inhibition rate (%) at 0.024 µg/mL [2]: 0% | Infection inhibition rate (%) at 0.391 µg/mL [2]: 0% | Infection inhibition rate (%) at 0.98 µg/mL [2]: 0% | Infection inhibition rate (%) at 1.6 µg/mL [2]: 0% | Infection inhibition rate (%) at 6.3 µg/mL [2]: 0% | Infection inhibition rate (%) at 25.0 µg/mL [2]: 14.3% | Infection inhibition rate (%) at 100.0 µg/mL [2]: 28.2% | Infection inhibition rate (%) at 200.0 µg/mL [2]: 38.6% | Infection inhibition rate (%) [3]: 0% | Infection inhibition rate (%) at 0.024 µg/mL [3]: 0% | Infection inhibition rate (%) at 0.391 µg/mL [3]: 0% | Infection inhibition rate (%) at 1.6 µg/mL [3]: 0% | Infection inhibition rate (%) at 6.3 µg/mL [3]: 0% | Infection inhibition rate (%) at 25.0 µg/mL [3]: 0% | Infection inhibition rate (%) at 100.0 µg/mL [3]: 15.8% | Infection inhibition rate (%) at 200.0 µg/mL [3]: 39.4% | Infection inhibition rate (%) [4]: 0% | Infection inhibition rate (%) at 0.391 µg/mL [4]: 1.9% | Infection inhibition rate (%) at 1.6 µg/mL [4]: 31.4% | Infection inhibition rate (%) at 6.3 µg/mL [4]: 42.9% | Infection inhibition rate (%) at 25.0 µg/mL [4]: 96.7% | Infection inhibition rate (%) at 100.0 µg/mL [4]: 99% | Infection inhibition rate (%) at 200.0 µg/mL [4]: 99.5% | Infection inhibition rate (%) [5]: 0% | Infection inhibition rate (%) at 0.002 µg/mL [5]: 0% | Infection inhibition rate (%) at 0.006 µg/mL [5]: 0% | Infection inhibition rate (%) at 0.024 µg/mL [5]: 4.2% | Infection inhibition rate (%) at 0.391 µg/mL [5]: 4.2% | Infection inhibition rate (%) at 1.6 µg/mL [5]: 0% | Infection inhibition rate (%) at 6.3 µg/mL [5]: 6% | Infection inhibition rate (%) at 25.0 µg/mL [5]: 0% | Infection inhibition rate (%) at 100.0 µg/mL [5]: 16.1% | Infection inhibition rate (%) at 200.0 µg/mL [5]: 15.1%

B1: Group 52 representative clone F083-328, Fab-cp3-type antibody (Fab, V domains shown)
VH: QVQLVQSGAEVKKPGSSVKLSCKASGGTLRSYALSWVRQAPGEGLEWMGGISAIFNTATYAQNVQGRVTITADESTNTFYLEVSSLRSDDTAVYYCATSGTYYVSFFDYWGQGTLVTVSS
VL: DIVLTQSPSTLSASVGDRVTLTCRASQSIGSLMAWYQQQPGKPPKLLIYRASNLETGVPSRFTGSGSGTEFALTISSLQPDDVGTYYCQHFKTFSRTFGQGTKVEIK
Binding activity (absorbance at 492 nm) [6]: 2.43 | Binding activity (absorbance at 492 nm) [7]: 2.02 | Binding activity (absorbance at 492 nm) [8]: 2.66 | Binding activity (absorbance at 492 nm) [9]: 0.22

B2: F083-336 completely humanized IgG antibody (antibody, V domains shown)
VH: QVQLQQSGAEVKQPGSSVKVSCKASGGIFRSNAISWVRQAPGQGLEWMGGIVALFGTANYAQKFQGRVTITADESTSTVYMELSSLRSEDTARYYCARNSGYHISGFYLDYWGQGTLVTVSS
VL: EIVLTQSPSSLSASVGDRVTITCRASQGISNYLAWYQQRPGKVPKLLIYTASTLLSGVPSRFSGGGSGTDYTLTISSLQPEDVATYYCQEYKSVPLTFGPGTKVEIK
Infection inhibition rate (%) at 0.002 µg/mL [10]: 2.3% | Infection inhibition rate (%) at 0.006 µg/mL [10]: 7.3% | Infection inhibition rate (%) at 0.024 µg/mL [10]: 11.1% | Infection inhibition rate (%) at 0.391 µg/mL [10]: 42.4% | Infection inhibition rate (%) at 0.98 µg/mL [10]: 32.4% | Infection inhibition rate (%) at 1.6 µg/mL [10]: 72.1% | Infection inhibition rate (%) at 6.3 µg/mL [10]: 90.5% | Infection inhibition rate (%) at 25.0 µg/mL [10]: 97.3% | Infection inhibition rate (%) at 100.0 µg/mL [10]: 100% | Infection inhibition rate (%) at 200.0 µg/mL [10]: 100% | Infection inhibition rate (%) [11]: 1% | Infection inhibition rate (%) at 0.024 µg/mL [11]: 0% | Infection inhibition rate (%) at 0.391 µg/mL [11]: 22.1% | Infection inhibition rate (%) at 1.6 µg/mL [11]: 40.5% | Infection inhibition rate (%) at 6.3 µg/mL [11]: 66.4% | Infection inhibition rate (%) at 25.0 µg/mL [11]: 86.7% | Infection inhibition rate (%) at 100.0 µg/mL [11]: 89.3% | Infection inhibition rate (%) at 200.0 µg/mL [11]: 98.5% | Infection inhibition rate (%) [12]: 2.5% | Infection inhibition rate (%) at 0.024 µg/mL [12]: 0% | Infection inhibition rate (%) at 0.391 µg/mL [12]: 19.9% | Infection inhibition rate (%) at 1.6 µg/mL [12]: 39.8% | Infection inhibition rate (%) at 6.3 µg/mL [12]: 81.5% | Infection inhibition rate (%) at 25.0 µg/mL [12]: 86.7% | Infection inhibition rate (%) at 100.0 µg/mL [12]: 85.9% | Infection inhibition rate (%) at 200.0 µg/mL [12]: 98.9% | Infection inhibition rate (%) [13]: 2.9% | Infection inhibition rate (%) at 0.391 µg/mL [13]: 4.8% | Infection inhibition rate (%) at 1.6 µg/mL [13]: 0% | Infection inhibition rate (%) at 6.3 µg/mL [13]: 0% | Infection inhibition rate (%) at 25.0 µg/mL [13]: 0% | Infection inhibition rate (%) at 100.0 µg/mL [13]: 0% | Infection inhibition rate (%) at 200.0 µg/mL [13]: 0% | Infection inhibition rate (%) [14]: 30.7% | Infection inhibition rate (%) at 0.002 µg/mL [14]: 0% | Infection inhibition rate (%) at 0.006 µg/mL [14]: 13.8% | Infection inhibition rate (%) at 0.024 µg/mL [14]: 30.7% | Infection inhibition rate (%) at 0.391 µg/mL [14]: 62.1% | Infection inhibition rate (%) at 1.6 µg/mL [14]: 93.2% | Infection inhibition rate (%) at 6.3 µg/mL [14]: 100% | Infection inhibition rate (%) at 25.0 µg/mL [14]: 100% | Infection inhibition rate (%) at 100.0 µg/mL [14]: 100% | Infection inhibition rate (%) at 200.0 µg/mL [14]: 100%

B3: F081-007 completely humanized IgG antibody (antibody, V domains shown)
VH: QVQLQQSGAEVKKPGSSVKVSCKASGGIFRKNAISWVRQAPGQGLEWMGGISAIFGTANYAQKFQGRVTITADESSNTVYMDLSRLRSEDTAIYYCASHPTYHFDKSGYRFDSWGQGTLVTVSS
VL: QSVLTQPPSVSAAPGQKVTISCSGSSSNIGNNYVSWYQQLPGTAPKLLIYDNNKRPSGIPDRFSGSKSGTSATLGITGLQTGDEADYYCGTWDSSLSAGVFGGGTKLTVLG
Infection inhibition rate (%) [10]: 36.3% | Infection inhibition rate (%) at 0.002 µg/mL [10]: 0% | Infection inhibition rate (%) at 0.006 µg/mL [10]: 9.9% | Infection inhibition rate (%) at 0.024 µg/mL [10]: 27.9% | Infection inhibition rate (%) at 0.391 µg/mL [10]: 59.2% | Infection inhibition rate (%) at 1.6 µg/mL [10]: 82.4% | Infection inhibition rate (%) at 6.3 µg/mL [10]: 90.1% | Infection inhibition rate (%) at 25.0 µg/mL [10]: 100% | Infection inhibition rate (%) at 100.0 µg/mL [10]: 100% | Infection inhibition rate (%) at 200.0 µg/mL [10]: 100% | IC50 of neutralization [11]: 0.36 µg/mL | Infection inhibition rate (%) [11]: 10.2% | Infection inhibition rate (%) at 0.024 µg/mL [11]: 7% | Infection inhibition rate (%) at 0.391 µg/mL [11]: 55.3% | Infection inhibition rate (%) at 1.6 µg/mL [11]: 85.1% | Infection inhibition rate (%) at 6.3 µg/mL [11]: 100% | Infection inhibition rate (%) at 25.0 µg/mL [11]: 100% | Infection inhibition rate (%) at 100.0 µg/mL [11]: 100% | Infection inhibition rate (%) at 200.0 µg/mL [11]: 100% | Infection inhibition rate (%) at 0.024 µg/mL [12]: 0% | Infection inhibition rate (%) at 0.391 µg/mL [12]: 37.2% | Infection inhibition rate (%) at 0.98 µg/mL [12]: 16.5% | Infection inhibition rate (%) at 1.6 µg/mL [12]: 79% | Infection inhibition rate (%) at 6.3 µg/mL [12]: 92.6% | Infection inhibition rate (%) at 25.0 µg/mL [12]: 98.2% | Infection inhibition rate (%) at 100.0 µg/mL [12]: 98.9% | Infection inhibition rate (%) at 200.0 µg/mL [12]: 98.9% | Infection inhibition rate (%) [13]: 0% | Infection inhibition rate (%) at 0.391 µg/mL [13]: 0% | Infection inhibition rate (%) at 1.6 µg/mL [13]: 0% | Infection inhibition rate (%) at 6.3 µg/mL [13]: 0% | Infection inhibition rate (%) at 25.0 µg/mL [13]: 0% | Infection inhibition rate (%) at 100.0 µg/mL [13]: 0% | Infection inhibition rate (%) at 200.0 µg/mL [13]: 0% | Infection inhibition rate (%) [14]: 49.8% | Infection inhibition rate (%) at 0.002 µg/mL [14]: 29.3% | Infection inhibition rate (%) at 0.006 µg/mL [14]: 32% | Infection inhibition rate (%) at 0.024 µg/mL [14]: 45.3% | Infection inhibition rate (%) at 0.391 µg/mL [14]: 83.1% | Infection inhibition rate (%) at 1.6 µg/mL [14]: 96.8% | Infection inhibition rate (%) at 6.3 µg/mL [14]: 100% | Infection inhibition rate (%) at 25.0 µg/mL [14]: 100% | Infection inhibition rate (%) at 100.0 µg/mL [14]: 100% | Infection inhibition rate (%) at 200.0 µg/mL [14]: 100%
